Columns and labels:
[1] = biological target: T1, rhKeap1^R415A+Y525A+ (residue 321-609 aa) (human, UniProt Q14145 321-609, R415A | Y525A, biotinylated (site not stated)); assay: BLI
[2] = biological target: T1, rhKeap1^R415A+Y525A+ (residue 321-609 …); assay: BLI; remark: listed apart in the source

T1 sequence (Q14145 321-609 R415A/Y525A): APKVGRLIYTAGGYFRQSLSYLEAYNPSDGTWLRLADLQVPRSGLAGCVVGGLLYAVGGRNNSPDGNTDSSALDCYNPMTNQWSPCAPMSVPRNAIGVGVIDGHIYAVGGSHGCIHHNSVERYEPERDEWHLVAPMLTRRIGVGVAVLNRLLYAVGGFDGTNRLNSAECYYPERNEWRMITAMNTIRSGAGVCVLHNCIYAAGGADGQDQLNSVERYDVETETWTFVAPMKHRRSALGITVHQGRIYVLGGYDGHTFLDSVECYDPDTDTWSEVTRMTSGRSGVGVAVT

B1: human Nrf2 protein (natural protein)
chain: MMDLELPPPGLPSQQDMDLIDILWRQDIDLGVSREVFDFSQRRKEYELEKQKKLEKERQEQLQKEQEKAFFAQLQLDEETGEFLPIQPAQHIQSETSGSANYSQVAHIPKSDALYFDDCMQLLAQTFPFVDDNEVSSATFQSLVPDIPGHIESPVFIATNQAQSPETSVAQVAPVDLDGMQQDIEQVWEELLSIPELQCLNIENDKLVETTMVPSPEAKLTEVDNYHFYSSIPSMEKEVGNCSPHFLNAFEDSFSSILSTEDPNQLTVNSLNSDATVNTDFGDEFYSAFIAEPSISNSMPSPATLSHSLSELLNGPIDVSDLSLCKAFNQNHPESTAEFNDSDSGISLNTSPSVASPEHSVESSSYGDTLLGLSDSEVEELDSAPGSVKQNGPKTPVHSSGDMVQPLSPSQGQSTHVHDAQCENTPEKELPVSPGHRKTPFTKDKHSSRLEAHLTRDELRAKALHIPFPVEKIINLPVVDFNEMMSKEQFNEAQLALIRDIRRRGKNKVAAQNCRKRKLENIVELEQDLDHLKDEKEKLLKEKGENDKSLHLLKKQLSTLYLEVFSMLRDEDGKPYSPSEYSLQQTRDGNVFLVPKSKKPDVKKN
Kd [1]: 107 nM | koff [2]: 0.00262 s⁻¹
